Experimental data taken from article PMC11838735, “Structural basis of collagen glucosyltransferase function and its serendipitous role in kojibiose synthesis” (Research Square, 2025).

B1: mimiviral collagen glucosyltransferase R699, wild type (pET28 construct) (enzyme)
chain: EQSNNDDNLLVLGIGISVHKTDGVLRFEKYCQAHNLQYMIVGEGKKWNGGNLESEAGGGQKINELLIALESIKDNKLIVVCDTYDLIPLSGPEEILRKYRFLTPDNKVVFSSELYCWPDASLVERYPKVDTKYKYLNSGAFMGYRDDIYEMIKNGVKDRDDDQLFFSIKFIETDKIVLDYKCELFQAMYRCNSDLVVHKNRIFNGYTNSYPVFAHGNGPAKKLLNHMEGYFMTEPIDGSSNTINTFKLDNEPKVFFALYVDSNDLSALKQFLGKVASIQYGNKVIYLYDRSDNEQNRKLIQISYPNYHTGVTKYVFDDFKKSDAQFYFLLEQNCIITKKDILHELIMQVKDNHRVISPMIGYEQNSTRTNFWGDIEDGYYKRSENYLDLAKHKVRGLWNVPYVYGVILMHESVVRNWDLSMVKYNDKDMDLCFSLRKHTIFMYMINNNNYGYMV
notes: R699 protein of Acanthamoeba polyphaga mimivirus, collagen galactosylhydroxylysyl glucosyltransferase; gene synthesized by Genscript; The vector has a PreScission site in place of the thrombin site, and no cleavage is described for this construct; also called R699WT; mimiviral R699

Key:
[1] = molecular target: human PLOD2b GLT-AC truncation (PLOD2b-GA) (human); test: SEC-MALS; the paper calls it SEC-DLS (size exclusion chromatography with dynamic light scattering); Superdex 200 10/300, miniDAWN TREOS and Optilab T-rEX detectors, 20 mM Tris pH 8, 200 mM NaCl, 3 mg ml^-1, 150 μl injected, 0.5 ml min^-1; molar mass across the peak; each protein analyzed once
[2] = molecular target: the molecule itself; test: as above

| Molecule | stoichiometry N [1] | stoichiometry N [2] |
| --- | --- | --- |
| human PLOD2b GLT-AC truncation (PLOD2b-GA) (domain or fragment) | 2 | – |
| B1 | – | 2 |
